This is an account of results in the supplement of paper PMC5998384.

The subject of series [1] is HeLa Kyoto. The series can be described thus: solubility in G1/S (NP-40 vs SDS abundance) (log2 ratio); higher = more soluble. To be noted: cell cycle stage: G1/S.
Series [2] concerns HeLa Kyoto. The series can be described thus: thermal stability score vs G1/S (z-score of summed log2 fold changes over temperatures); higher = more thermally stable than in G1/S.
Series [3] has as its system HeLa Kyoto. The series can be described thus: solubility change mitosis vs G1/S (difference of NP-40 vs SDS log2 ratios) (log2 ratio difference); higher = more soluble in mitosis.
The subject of series [4] is HeLa Kyoto. Put plainly: melting temperature (median over replicates), in situ; higher = more thermally stable.
The mark [5] stands for this setting: cell cycle stage: early G1 (4.5 h after nocodazole release).
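For melting temperature (median over replicates), in situ in this document: HeLa Kyoto cells synchronized by double thymidine or nocodazole block, proteins quantified by TMT10plex mass spectrometry, three independent biological replicates.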
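For solubility change mitosis vs G1/S (difference of NP-40 vs SDS log2 ratios) in this document: synchronized HeLa Kyoto cells (double thymidine block for G1/S, nocodazole release for mitosis), protein amounts in NP-40 versus SDS lysates quantified by mass spectrometry, three biological replicates.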
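For solubility in G1/S (NP-40 vs SDS abundance) in this document: HeLa Kyoto cells arrested at G1/S by double thymidine block, proteins quantified by TMT10plex mass spectrometry in mild NP-40 versus SDS extracts, three biological replicates.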
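For thermal stability score vs G1/S (z-score of summed log2 fold changes over temperatures) in this document: synchronized HeLa Kyoto cells, proteins quantified by TMT10plex mass spectrometry, three biological replicates, mitosis taken 0.5 h after nocodazole release, G1/S directly after double thymidine block.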

Sequence of XPO4 (chain, as listed by the source): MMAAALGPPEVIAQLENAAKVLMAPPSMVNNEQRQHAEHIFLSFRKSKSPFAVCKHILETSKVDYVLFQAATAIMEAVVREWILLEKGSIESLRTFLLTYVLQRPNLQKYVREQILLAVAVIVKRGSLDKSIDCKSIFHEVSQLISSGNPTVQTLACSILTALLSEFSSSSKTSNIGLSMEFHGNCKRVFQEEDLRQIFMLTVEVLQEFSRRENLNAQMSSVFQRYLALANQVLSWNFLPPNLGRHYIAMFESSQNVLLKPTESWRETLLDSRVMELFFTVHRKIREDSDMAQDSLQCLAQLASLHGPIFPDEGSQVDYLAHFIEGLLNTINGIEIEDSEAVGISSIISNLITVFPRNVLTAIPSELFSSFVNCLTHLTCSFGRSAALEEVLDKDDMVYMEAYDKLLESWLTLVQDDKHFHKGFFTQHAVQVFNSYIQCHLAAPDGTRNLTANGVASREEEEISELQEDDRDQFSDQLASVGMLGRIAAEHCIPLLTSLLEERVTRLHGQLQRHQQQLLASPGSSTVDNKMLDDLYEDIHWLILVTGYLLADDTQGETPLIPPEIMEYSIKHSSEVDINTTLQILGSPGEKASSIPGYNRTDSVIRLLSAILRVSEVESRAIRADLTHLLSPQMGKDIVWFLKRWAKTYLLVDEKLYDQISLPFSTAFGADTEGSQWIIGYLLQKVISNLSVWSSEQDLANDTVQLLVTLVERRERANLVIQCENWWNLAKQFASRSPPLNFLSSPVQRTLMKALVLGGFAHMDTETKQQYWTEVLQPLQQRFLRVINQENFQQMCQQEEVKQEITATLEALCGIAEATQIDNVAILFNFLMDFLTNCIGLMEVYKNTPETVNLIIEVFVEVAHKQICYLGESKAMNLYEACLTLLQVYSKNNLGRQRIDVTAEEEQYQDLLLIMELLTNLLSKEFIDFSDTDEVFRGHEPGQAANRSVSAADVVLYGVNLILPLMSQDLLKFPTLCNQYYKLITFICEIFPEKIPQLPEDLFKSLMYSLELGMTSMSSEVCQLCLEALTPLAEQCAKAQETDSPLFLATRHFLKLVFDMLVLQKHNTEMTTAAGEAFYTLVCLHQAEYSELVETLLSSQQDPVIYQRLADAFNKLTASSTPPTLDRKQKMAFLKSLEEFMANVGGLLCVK

With “MAAPAQPKKIVAPTVSQINAEFVTQLACKYWAPHIKKKSPFDIKVIEDIYEKEIVKSRFAIRKIMLLEFSQYLENYLWMNYSPEVSSKAYLMSICCMVNEKFRENVPAWEIFKKKPDHFPFFFKHILKAALAETDGEFSLHEQTVLLLFLDHCFNSLEVDLIRSQVQQLISLPMWMGLQLARLELELKKTPKLRKFWNLIKKNDEKMDPEAREQAYQERRFLSQLIQKFISVLKSVPLSEPVTMDKVHYCERFIELMIDLEALLPTRRWFNTILDDSHLLVHCYLSNLVRREEDGHLFSQLLDMLKFYTGFEINDQTGNALTENEMTTIHYDRITSLQRAAFAHFPELYDFALSNVAEVDTRESLVKFFGPLSSNTLHQVASYLCLLPTLPKNEDTTFDKEFLLELLVSRHERRISQIQQLNQMPLYPTEKIIWDENIVPTEYYSGEGCLALPKLNLQFLTLHDYLLRNFNLFRLESTYEIRQDIEDSVSRMKPWQSEYGGVVFGGWARMAQPIVAFTVVEVAKPNIGENWPTRVRADVTINLNVRDHIKDEWEGLRKHDVCFLITVRPTKPYGTKFDRRRPFIEQVGLVYVRGCEIQGMLDDKGRVIEDGPEPRPNLRGESRTFRVFLDPNQYQQDMTNTIQNGAEDVYETFNIIMRRKPKENNFKAVLETIRNLMNTDCVVPDWLHDIILGYGDPSSAHYSKMPNQIATLDFNDTFLSIEHLKASFPGHNVKVTVEDPALQIPPFRITFPVRSGKGKKRKDADVEDEDTEEAKTLIVEPHVIPNRGPYPYNQPKRNTIQFTHTQIEAIRAGMQPGLTMVVGPPGTGKTDVAVQIISNIYHNFPEQRTLIVTHSNQALNQLFEKIMALDIDERHLLRLGHGEEELETEKDFSRYGRVNYVLARRIELLEEVKRLQKSLGVPGDASYTCETAGYFFLYQVMSRWEEYISKVKNKGSTLPDVTEVSTFFPFHEYFANAPQPIFKGRSYEEDMEIAEGCFRHIKKIFTQLEEFRASELLRSGLDRSKYLLVKEAKIIAMTCTHAALKRHDLVKLGFKYDNILMEEAAQILEIETFIPLLLQNPQDGFSRLKRWIMIGDHHQLPPVIKNMAFQKYSNMEQSLFTRFVRVGVPTVDLDAQGRARASLCNLYNWRYKNLGNLPHVQLLPEFSTANAGLLYDFQLINVEDFQGVGESEPNPYFYQNLGEAEYVVALFMYMCLLGYPADKISILTTYNGQKHLIRDIINRRCGNNPLIGRPNKVTTVDRFQGQQNDYILLSLVRTRAVGHLRDVRRLVVAMSRARLGLYIFARVSLFQNCFELTPAFSQLTARPLHLHIIPTEPFPTTRKNGERPSHEVQIIKNMPQMANFVYNMYMHLIQTTHHYHQTLLQLPPAMVEEGEEVQNQETELETEEEAMTVQADIIPSPTDTSCRQETPAFQTDTTPSETGATSTPEAIPALSETTPTVVGAVSAPAEANTPQDATSAPEETK [AQR]”, the “solubility in G1/S (log2)” value with HeLa Kyoto [1] was -0.435. The thermal stability score in the series on HeLa Kyoto [2] (setting [5]) was 0.352; with HeLa Kyoto [2] (cell cycle stage: mitosis), 2.51. Moreover, the “solubility change mitosis (log2)” value in the series with HeLa Kyoto [3] was 0.0502. The melting temperature with HeLa Kyoto [4] (cell cycle stage: G1/S) is 48 °C; in the series on HeLa Kyoto [4] (cell cycle stage: mitosis), 50 °C.
Take “MATAAETSASEPEAESKAGPKADGEEDEVKAARTRRKVLSRAVAAATYKTMGPAWDQQEEGVSESDGDEYAMASSAESSPGEYEWEYDEEEEKNQLEIERLEEQLSINVYDYNCHVDLIRLLRLEGELTKVRMARQKMSEIFPLTEELWLEWLHDEISMAQDGLDREHVYDLFEKAVKDYICPNIWLEYGQYSVGGIGQKGGLEKVRSVFERALSSVGLHMTKGLALWEAYREFESAIVEAARLEKVHSLFRRQLAIPLYDMEATFAEYEEWSEDPIPESVIQNYNKALQQLEKYKPYEEALLQAEAPRLAEYQAYIDFEMKIGDPARIQLIFERALVENCLVPDLWIRYSQYLDRQLKVKDLVLSVHNRAIRNCPWTVALWSRYLLAMERHGVDHQVISVTFEKALNAGFIQATDYVEIWQAYLDYLRRRVDFKQDSSKELEELRAAFTRALEYLKQEVEERFNESGDPSCVIMQNWARIEARLCNNMQKARELWDSIMTRGNAKYANMWLEYYNLERAHGDTQHCRKALHRAVQCTSDYPEHVCEVLLTMERTEGSLEDWDIAVQKTETRLARVNEQRMKAAEKEAALVQQEEEKAEQRKRARAEKKALKKKKKIRGPEKRGADEDDEKEWGDDEEEQPSKRRRVENSIPAAGETQNVEVAAGPAGKCAAVDVEPPSKQKEKAASLKRDMPKVLHDSSKDSITVFVSNLPYSMQEPDTKLRPLFEACGEVVQIRPIFSNRGDFRGYCYVEFKEEKSALQALEMDRKSVEGRPMFVSPCVDKSKNPDFKVFRYSTSLEKHKLFISGLPFSCTKEELEEICKAHGTVKDLRLVTNRAGKPKGLAYVEYENESQASQAVMKMDGMTIKENIIKVAISNPPQRKVPEKPETRKAPGGPMLLPQTYGARGKGRTQLSLLPRALQRPSAAAPQAENGPAAAPAVAAPAATEAPKMSNADFAKLFLRK [SART3]”: the “solubility in G1/S (log2)” value with HeLa Kyoto [1] is -0.112. In addition, the results for the thermal stability score in the series on HeLa Kyoto [2] (setting [5]) and in the series on HeLa Kyoto [2] (cell cycle stage: mitosis) were 1.98 and 4.74, respectively. The “solubility change mitosis (log2)” value with HeLa Kyoto [3] was -0.103. For the same substance, the melting temperature in the series on HeLa Kyoto [4] (cell cycle stage: G1/S) is 48.2 °C; in the series with HeLa Kyoto [4] (cell cycle stage: mitosis) it was 49.2 °C.
As to “MSGDHLHNDSQIEADFRLNDSHKHKDKHKDREHRHKEHKKEKDREKSKHSNSEHKDSEKKHKEKEKTKHKDGSSEKHKDKHKDRDKEKRKEEKVRASGDAKIKKEKENGFSSPPQIKDEPEDDGYFVPPKEDIKPLKRPRDEDDADYKPKKIKTEDTKKEKKRKLEEEEDGKLKKPKNKDKDKKVPEPDNKKKKPKKEEEQKWKWWEEERYPEGIKWKFLEHKGPVFAPPYEPLPENVKFYYDGKVMKLSPKAEEVATFFAKMLDHEYTTKEIFRKNFFKDWRKEMTNEEKNIITNLSKCDFTQMSQYFKAQTEARKQMSKEEKLKIKEENEKLLKEYGFCIMDNHKERIANFKIEPPGLFRGRGNHPKMGMLKRRIMPEDIIINCSKDAKVPSPPPGHKWKEVRHDNKVTWLVSWTENIQGSIKYIMLNPSSRIKGEKDWQKYETARRLKKCVDKIRNQYREDWKSKEMKVRQRAVALYFIDKLALRAGNEKEEGETADTVGCCSLRVEHINLHPELDGQEYVVEFDFLGKDSIRYYNKVPVEKRVFKNLQLFMENKQPEDDLFDRLNTGILNKHLQDLMEGLTAKVFRTYNASITLQQQLKELTAPDENIPAKILSYNRANRAVAILCNHQRAPPKTFEKSMMNLQTKIDAKKEQLADARRDLKSAKADAKVMKDAKTKKVVESKKKAVQRLEEQLMKLEVQATDREENKQIALGTSKLNYLDPRITVAWCKKWGVPIEKIYNKTQREKFAWAIDMADEDYEF [TOP1]”, in the series on HeLa Kyoto [1], the “solubility in G1/S (log2)” value is -1.22. In addition, the thermal stability score was 7.82 in the series with HeLa Kyoto [2] (setting [5]) and 12 in the series on HeLa Kyoto [2] (cell cycle stage: mitosis). Also, the “solubility change mitosis (log2)” value with HeLa Kyoto [3] was 0.531. In addition, the melting temperature turned out to be 46.9 °C in the series with HeLa Kyoto [4] (cell cycle stage: G1/S) and 49.1 °C in the series on HeLa Kyoto [4] (cell cycle stage: mitosis).
With XPO4, the “solubility in G1/S (log2)” value in the series with HeLa Kyoto [1] is -0.0631. In addition, the thermal stability score with HeLa Kyoto [2] (setting [5]) is 0.898; in the series with HeLa Kyoto [2] (cell cycle stage: mitosis), 0.432. Moreover, in the series on HeLa Kyoto [3], the “solubility change mitosis (log2)” value was -0.113. The values for the melting temperature with HeLa Kyoto [4] (cell cycle stage: G1/S) and in the series with HeLa Kyoto [4] (cell cycle stage: mitosis) were 52.4 °C and 52 °C, respectively.
As to “MNEAMATDSPRRPSRCTGGVVVRPQAVTEQSYMESVVTFLQDVVPQAYSGTPLTEEKEKIVWVRFENADLNDTSRNLEFHEIHSTGNEPPLLIMIGYSDGMQVWSIPISGEAQELFSVRHGPIRAARILPAPQFGAQKCDNFAEKRPLLGVCKSIGSSGTSPPYCCVDLYSLRTGEMVKSIQFKTPIYDLHCNKRILVVVLQEKIAAFDSCTFTKKFFVTSCYPCPGPNMNPIALGSRWLAYAENKLIRCHQSRGGACGDNIQSYTATVISAAKTLKSGLTMVGKVVTQLTGTLPSGVTEDDVAIHSNSRRSPLVPGIITVIDTETVGEGQVLVSEDSDSDGIVAHFPAHEKPVCCMAFNTSGMLLVTTDTLGHDFHVFQILTHPWSSSQCAVHHLYTLHRGETEAKVQDICFSHDCRWVVVSTLRGTSHVFPINPYGGQPCVRTHMSPRVVNRMSRFQKSAGLEEIEQELTSKQGGRCSPVPGLSSSPSGSPLHGKLNSQDSYNNFTNNNPGNPRLSPLPSLMVVMPLAQIKQPMTLGTITKRTGPYLFGAGCFSIKAPCKVKPPPQISPSKSMGGEFCVAAIFGTSRSWFANNAGLKREKDQSKQVVVESLYIISCYGTLVEHMMEPRPLSTAPKISDDTPLEMMTSPRASWTLVRTPQWNELQPPFNANHPLLLAADAVQYYQFLLAGLVPPGSPGPITRHGSYDSLASDHSGQEDEEWLSQVEIVTHTGPHRRLWMGPQFQFKTIHPSGQTTVISSSSSVLQSHGPSDTPQPLLDFDTDDLDLNSLRIQPVRSDPVSMPGSSRPVSDRRGVSTVIDAASGTFDRSVTLLEVCGSWPEGFGLRHMSSMEHTEEGLRERLADAMAESPSRDVVGSGTELQREGSIETLSNSSGSTSGSIPRNFDGYRSPLPTNESQPLSLFPTGFP [BCAS3]”, the “solubility in G1/S (log2)” value in the series on HeLa Kyoto [1] was -0.0403. Besides, the thermal stability score in the series on HeLa Kyoto [2] (setting [5]) is -0.731; in the series on HeLa Kyoto [2] (cell cycle stage: mitosis), -1.02. Further, the “solubility change mitosis (log2)” value with HeLa Kyoto [3] is -0.229. In addition, the melting temperature in the series on HeLa Kyoto [4] (cell cycle stage: G1/S) came out at 52.9 °C; in the series with HeLa Kyoto [4] (cell cycle stage: mitosis) it was 52.2 °C.
